Results taken from patent US20250026813A1 (published 2025).
Positions count from the first letter of the chain named.

B1: IMPI-032 (antibody, V domains shown)
VH: QVQLQESGPGLVKPSGTLSLTCAVSGGSISSNKWWSWVRQPPGKGLEWIGEIDHSGSTMYNPSLKSRVTISVDKSKNQFSLKLNSVTAADTAVYYCTGEGYNWNYWGQGTRVTVSS
VL: DVVMTQSPLSLPVTLGQTASISCRSSQSLLYTDGNTYLSWFQQRPGQSPRRLIYKVSKWESGVPDRFSGSGSGTDFTLKISRVEAEDVGIYYCMQGTHWPLTFGGGTKVEIK
B2: IMPI-027 (antibody, V domains shown)
VH: QVQLQESGPGLVKPSQTLSLTCTVSGGSISSYGYYWNWIRQHPGKGLEWIGYIYYSGSTYYNPSLKSRVTISVDTSKNQLSLRLNSVSAADTAVYYCARDFGGNSNYFDYWGQGTLVTVSS
VL: AIQLTQSPSSLSASVGDRVTITCRTSQGISSALAWYQQKPGKAPKLLIYDASSLESGVPSRFSGSGSGTDFTLTISSLQPEDFATYYCQQFNSYPLTFGGGTKVEIK
B3: IMPI-022 (antibody, V domains shown)
VH: EVQLVESGGGLVQPGRSLRLSCAASGFTFDDYAMHWVRQAPGKGLEWVSGITWNSGSIGYADSVKGRFTISRDNAKNSLYLHMNSLRVEDTALYYCAKDLQGDYYYYGVDVWGQGTTVTVSS
VL: B2 VL with T25A, I48L, E55V, G66R, N92I, K103R
B4: IMPI-033 (antibody, V domains shown)
VH: B2 VH with N37S, I71M
VL: B2 VL with T25A, K45N, Y94S
B5: IMPI-004 (antibody, V domains shown)
VH: QVQLVESGGGVVQPGRSLRLSCAASGFTFSSYGMHWVRQAPGKGLEWVAVIWYDGGNKYYADSVKGRFTISRDNSKNTLYLQMNSLRAEDTAVYYCARVNVLMGYGMDVWGQGTTVTVSS
VL: EIVLTQSPGTLSLSPGDKATLSCRASQSIISSFLAWYQQKPGQAPRLLIYGASSRATGIPDRFSGSGSGTDFTLTISRLEPEDFAVYYCQQYGSSLTFGGGTKVEIK
B6: IMPI-029 (antibody, V domains shown)
VH: EVQLVESGGGLIQPGGSLRLSCAASGVTVSSNYMNWVRQAPGKGLEWVSVIYSGGSTYYADSVKGRFTISRDNSKNTLFLQMNSLRAEDSAVYYCARDLGPYGVDVWGQGTTVTVSS
VL: DIQLTQSPSFLSASVGDRVTITCWASQGISSYLAWYQQKPGKAPKLLIYAASTLQSGVPSRFSGSGSGTEFTLTISSLQPEDFATYYCQELNSYPLTFGQGTRLEIK
B7: IMPI-047 (antibody, V domains shown)
VH: B6 VH with V27F, F79Y, A87T, S90T, G100V, P101A, V104M
VL: B6 VL with L46V, E90L, Y94N, Q100G, R103K, L104V
B8: IMPI-060 (antibody, V domains shown)
VH: B6 VH with N35S, Y58F, F79Y, S90T, G100S, P101Y, V104M
VL: B6 VL with R61K, E90Q, L96S, T97S, R103K
B9: IMPI-005 (antibody, V domains shown)
VH: B6 VH with V27F
VL: B6 VL
B10: IMPI-056 (antibody, V domains shown)
VH: B6 VH with V27L, G44K, Y58F, K64R
VL: B6 VL with E90Q
B11: YANG-1301 (antibody, V domains shown)
VH: QVQLVESGGGVVQPGRSLRLSCAASGFTFSSYGMHWVRQAPGKGLEWVAVIWYDGSNKFYADSVKGRFTISRDNSKNTLYLQMNSLKAEDTAVYYCARDTWIGESDTSWLDPWGQGTLVTVSS
VL: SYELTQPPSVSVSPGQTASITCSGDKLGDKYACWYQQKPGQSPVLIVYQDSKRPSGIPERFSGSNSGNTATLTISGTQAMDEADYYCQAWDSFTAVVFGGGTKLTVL
B12: YANG-2303 (antibody, V domains shown)
VH: QVQLVQSGAEVKKPGASVRVSCKVSGYTLPELAIHWVRQAPGKGLEWMGGFDPEDGETIYAQKFQGRVIMTEDTSTDTAYMDLSSLRSEDTAVYYCVKTWAAPGYNYGLDTWGQGTTVTVSS
VL: EIVLTQSPGILSLSPGESATLSCRASQSIASNYLAWFQQKPGQAPRLLIYGASSRAAGFPDRFSGSGSGTDFTLTIKRLEPEDSAVYYCQHYGSSPCSFGQGTNLEIK
B13: YANG-1302 (antibody, V domains shown)
VH: QVQLVESGGGAVQPGRSLRLSCRASGFTFSSFGMNWVRQVPGKGLVWVAGIWYDGRNKYYADSVKGRFTISRENSKNMLYLQMNSLRAEDTAVYYCARDQDSGFDGNWFGPWGQGTMVTVSS
VL: SYELTQPPSMSVSPGQTASITCSGDNLGDKYVCWYQQRPGQSPVMVIFQDSTRPSGIPERFSGSNSGNTATLTISGTQAMDEADYYCQAWDSNTAVFGGGTKLTVL
B14: YANG-1401 (antibody, V domains shown)
VH: QVHLQESGPGLVKPSGTLSLTCAVSGGSFSQINWWSWVRQSPGKGLEWIGEIYHSGSTNYNPSLKSRVTMSVDKSKNQFSLALNSVTAADTAVYYCARGYYGDNWFDSWGQGTLVTVSS
VL: DIQMTQSPSSLSASIGDRVTITCRASQGISNWLVWYQQKPEKAPKSLIYAASSLQSGVPSRFSGSGSGTDFTLTISSLHPEDFATYYCQQYSDYPLTFGGGTKVEIK
B15: YANG-2107 (antibody, V domains shown)
VH: QVQLQESGPGLVKPSGTLSLTCAVSGGSIRSSNWWIWVRQSPGKGLEWIGEIYHGGNTNYNPSLKSRVTLSVDKSKNQFSLKLSSVTAADTAVYYCARALYDIGGVFDIWGQGTMVTVSS
VL: QSALTQPASVSGSPGQSISISCTGTSSDIGGYNYVSWYQQHPGKAPKLMIYDVSERPSGVSNRFSGSKSGNTASLTISGLQAEDEGDYYCCSYAANSNVVFGGGTKLSVL
B16: YANG-2108 (antibody, V domains shown)
VH: B15 VH with L11Q, S41P, N61S, T69S, L70I, Q78H, K82N, S84T, I103V
VL: B15 VL with S19T, T25S, I29V
B17: YANG-2301 (antibody, V domains shown)
VH: QVHLIQSGAEVKKPGASVKVSCKVSGYTLIEVSVHWVRQAPGKGLEWMGGFDPEAAETIYAQKFQGRVTMTEDTSTDTAYMDLSSLKSEDSAVYYCAIGPAVTGRNSGEYYYYYGMDVWGQGTTVTVAS
VL: EIVMTQSPATLSVSPGERATLSCRASQSVNSNLAWYQQKPGQAPRLLIYAVSTRATGLPARFSGSGSGTEFTLTISSLQSEDFVVYYCHQYNNWPLTFGGGTKVEIK
B18: YANG-2208 (antibody, V domains shown)
VH: QIQLVQSGAEVRKPGASVRFSCKTSGYIFTNYYMVWVRQAPGQGLEWMGIIKPSGGNTIYAQKFQGRVTMTRDTSTNTVYMDLNNLRSEDTAVYFCARTGDRAFDVWGQGTMVTVSS
VL: QSVLTQPPSMSAAPGQKVTISCSGNSSNIGNNFVSWYRQFPGTAPKLLIYDNNKRPSGIPDRFSGSKSGTSATLGITGLQTGDEADYYCGTWDSSLSAGVFGGGTKLTVL
B19: YANG-2111 (antibody, V domains shown)
VH: GVQLVESGGGLVQPGRSLRLSCAASGFTFDDYALHWVRQVPGKGLEWVSSISWNSDDLGYADSVEGRFTISRDNAKNSLYLQMSSLRTEDTALYYCVKDTRAHYDILAGYRGLDSWGQGTLVTVSS
VL: DIVMTQSPLSLPVTPGEPASISCRSTQSLLHSNGYNFLDWYLQKPGQSPQLLIYLGSNRASGVPDRFSGSGSGTDFSLKISRVEAEDIGIYYCIQGLQTPITFGQGTRLEIK
B20: YANG-2203 (antibody, V domains shown)
VH: QVQLVQSGAEVKQPGASVKVSCRASGYALTSFYVHWVRQAPGQGLEWMGIIKPSGGDTIYAQNLQGRVTMTRDTSTNTFYVELSSLRSEDTALYYCAISGNTRAFEIWGQGTMVTVSL
VL: QSVLTQPPSVSAAPGQKVTISCSGSSSNIGNNFVSWYQQLPGMVPKLLIYANNKRPSGIPDRFSGSRSGTSATLGITGLQTGDEADYYCGTWDSSRSAVLFGGGTKMTVL
B21: YANG-2205 (antibody, V domains shown)
VH: B18 VH with R12K, R19K, I28T, N31S, N84S, N85S, F95Y, Q109H, V113I
VL: B18 VL with M10V, N25S, R38Q, S97G
B22: YANG-2207 (antibody, V domains shown)
VH: QMQLVQSGAEVKKPGASVKISCKTSGYTFTNYYMVWVRQAPGQGLEWMGIIKPSGGNTIYAQKFQGRVTMTRDTSTNTVYLDLSSLRSEDTAVYYCARTGNRAFDVWGHGTMVTVSS
VL: B18 VL with M10V, N25S, R38Q, S97G
B23: YANG-2204 (antibody, V domains shown)
VH: B22 VH with I20F, L81M, S84T, N101D, H109Q
VL: B18 VL with M10V, N25S, F33Y, R38Q, F40L, S97G
B24: YANG-2206 (antibody, V domains shown)
VH: B22 VH with M2I, I20L, N31S, Y60F, L81M, S84N, N101D
VL: B18 VL with M10V, N25S, F33Y, R38Q, S97G, L107V
B25: YANG-2302 (antibody, V domains shown)
VH: QVQLVQSGAEVRKPGASVKVSCKVSGYTLPELAIHWVRQAPGKGLEWMGGFIPEDGDTIYAQKFQGRVTMTEDTSTDTAYMDLTSLRSEDAAVYYCTSGWAAPGYNYGMAVWGQGTTVTVSS
VL: EVVLTQSPGTLSLSSGERATLSCRASQSVSSNYLAWYQKKPGQAPRLLIYGASSRVTGIPDRFGGSGSGTDFTLTISRLEPEDFAVYYCQQYDASPYSFGQGTKLDIK
B26: YANG-1112 (antibody, V domains shown)
VH: QITLKESGPTLVKPTQTLTLTCTFSGFSLSTGGVAVGWIRQPPGKALEWLAIIYWDDDKRYSPSLKSRLTITKDTSKNQVVLTMTNMDPVDTATYYCAHWGKDSFDIWGQGTMVTVSS
VL: SYELTQPPSVSVSPGQTARITCSGDALPRKYAYWYQQKSGQAPVLVIYEDNNRPSGIPERFSGSSSGTTATLTVSGAQVEDEADYYCYSTDTSGYVVFGGGTKLTVL

Target: T1, S1 subunit of the SARS-CoV-2 spike protein (Sino Biological 40591-V08H), His tag (SARS-CoV-2, UniProt P0DTC2 16-685)
T1 construct: domain: S1 subunit
Test: not given

Row | Binder | HTRF deltaF [deltaF]
1 | B1 | -8.9
2 | B2 | 755
3 | B3 | -5.8
4 | B4 | 929

Target: full-length stabilised spike trimer protein of SARS-CoV-2 virus (in-house, soluble ECD with trimeris (SARS-CoV-2, UniProt P0DTC2 14-1208; P10104 458-484)
Test: not given

Row | Binder | HTRF deltaF [deltaF]
5 | B1 | 218
6 | B2 | 800
7 | B3 | 483
8 | B4 | 884

Target: full soluble spike trimer of SARS-CoV-2 virus (stabilised, in-house) (SARS-CoV-2, UniProt P0DTC2 14-1208; P10104 458-484)
Test: not given

Row | Binder | IC50 [nM]
9 | B5 | 4.09
10 | B6 | 3.31
11 | B7 | 7.3
12 | B8 | 5.26
13 | B9 | 13.1
14 | B10 | 3.73

Target: SARS-CoV-2 spike protein bearing furin mutation and truncation in retention sequence, on pseudovirus (SARS-CoV-2, UniProt P0DTC2 14-1255)
Test: cell-based or functional assay

Row | Binder | pseudovirus neutralisation IC50 [nM]
15 | B11 | 0.52
16 | B12 | 0.48
17 | B13 | 0.23
18 | B14 | 0.53
19 | B15 | 0.3
20 | B16 | 0.27
21 | B17 | 0.53
22 | B18 | 4.68
23 | B19 | 1.33
24 | B20 | 5.45
25 | B21 | 3.35
26 | B22 | 2.59
27 | B23 | 3.3
28 | B24 | 3.96
29 | B25 | 0.61
30 | B26 | 0.52
